Reference: PMC2852523 (The Journal of Membrane Biology, 2010)

T1: Potassium channel KcsA, wild-type (Streptomyces lividans), P0A334
T1 chain: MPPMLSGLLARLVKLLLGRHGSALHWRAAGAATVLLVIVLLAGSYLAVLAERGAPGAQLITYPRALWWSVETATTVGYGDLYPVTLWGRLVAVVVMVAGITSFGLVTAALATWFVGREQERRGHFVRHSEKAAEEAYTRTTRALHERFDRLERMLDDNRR


How the values were obtained:
SDS-PAGE = biological target: the molecule itself; assay: SDS-PAGE
[1] = biological target: T1, Potassium channel KcsA, wild-type …; assay: SDS-PAGE; details: remark: other sources report otherwise

| Binder | stoichiometry N (SDS-PAGE) | stoichiometry N [1] |
| --- | --- | --- |
| ΔN-KcsA (KcsA lacking the first 18 amino acids, Δ1–18) (domain or fragment, Streptomyces lividans, UniProt P0A334 19-160, looked up) RHGSALHWRAAGAATVLLVIVLLAGSYLAVLAERGAPGAQLITYPRALWWSVETATTVGYGDLYPVTLWGRLVAVVVMVAGITSFGLVTAALATWFVGREQERRGHFVRHSEKAAEEAYTRTTRALHERFDRLERMLDDNRR | 4 |  |
| Potassium channel KcsA, wild-type, P0A334 1-160 (natural protein) MPPMLSGLLARLVKLLLGRHGSALHWRAAGAATVLLVIVLLAGSYLAVLAERGAPGAQLITYPRALWWSVETATTVGYGDLYPVTLWGRLVAVVVMVAGITSFGLVTAALATWFVGREQERRGHFVRHSEKAAEEAYTRTTRALHERFDRLERMLDDNRR |  | 4 |
